Test results published in patent US20260207757A1 (IGF ONCOLOGY, published 2026).

B1: LR3IGF-MTX (ligand)
chain: MFPAMPLSSLFVNGPRTLCGALVDALQFVCGDRGFYFNKPTGYGSSSRRAPQTGIVDECCFRSCDLRRLEMYCAPLKPAKSEA
modifications: methotrexate on amino groups (3 lysine side chains and the N-terminal amino group available), MTX:protein ratio of 2.8
B2: 785IGF (ligand)
chain: MVKQIESKTAFQEALDAAGDKLVVVDFSATWCGHCKMIKPFFHSLSEKYSNVIFLEVDVDDSQDVASESEVKSMPTFQFFKKGQKVGEFSGANKEKLEATINELVGSKSGHHHHHHSAKGFVNQHLCGSHLVEALYLVCGDRGFYFNKPTGYGSSSRRAPQTGIVDECCFRSCDLRRLEMYCAPLKPAKSA
notes: also called mutTrx-IGF132
B3: 403IGF (ligand)
chain: MTSGHHHHHHSAGVNGFVNQHLCGSHLVEALYLVCGDRGFYFNKPTGYGSSSRRAPQTGIVDECCFRSCDLRRLEMYCAPLKPAKSA
notes: T0001 describes it as His6-IGF; also called His6-IGF
B4: 764IGF (ligand)
chain: MVKGKHHHHHHNGKGKSKFVNQHLCGSHLVEALYLVCGDRGFYFNKPTGYGSSSRRAPQTGIVDECCFRSCDLRRLEMYCAPLKPAKSA
notes: also called His6-K5-IGF132

How the values were obtained:
[1] = target: dihydrofolate reductase; test: cell-based or functional assay
[2] = target: T1, type 1 IGF receptor (IGF-1R) (human, UniProt P08069 31-1367); test: competition binding to IGF receptors against radioactive wild type IGF
T1 construct: whole, on cells; also called IGF-1 receptor; CD221
T1 sequence (P08069 31-1367): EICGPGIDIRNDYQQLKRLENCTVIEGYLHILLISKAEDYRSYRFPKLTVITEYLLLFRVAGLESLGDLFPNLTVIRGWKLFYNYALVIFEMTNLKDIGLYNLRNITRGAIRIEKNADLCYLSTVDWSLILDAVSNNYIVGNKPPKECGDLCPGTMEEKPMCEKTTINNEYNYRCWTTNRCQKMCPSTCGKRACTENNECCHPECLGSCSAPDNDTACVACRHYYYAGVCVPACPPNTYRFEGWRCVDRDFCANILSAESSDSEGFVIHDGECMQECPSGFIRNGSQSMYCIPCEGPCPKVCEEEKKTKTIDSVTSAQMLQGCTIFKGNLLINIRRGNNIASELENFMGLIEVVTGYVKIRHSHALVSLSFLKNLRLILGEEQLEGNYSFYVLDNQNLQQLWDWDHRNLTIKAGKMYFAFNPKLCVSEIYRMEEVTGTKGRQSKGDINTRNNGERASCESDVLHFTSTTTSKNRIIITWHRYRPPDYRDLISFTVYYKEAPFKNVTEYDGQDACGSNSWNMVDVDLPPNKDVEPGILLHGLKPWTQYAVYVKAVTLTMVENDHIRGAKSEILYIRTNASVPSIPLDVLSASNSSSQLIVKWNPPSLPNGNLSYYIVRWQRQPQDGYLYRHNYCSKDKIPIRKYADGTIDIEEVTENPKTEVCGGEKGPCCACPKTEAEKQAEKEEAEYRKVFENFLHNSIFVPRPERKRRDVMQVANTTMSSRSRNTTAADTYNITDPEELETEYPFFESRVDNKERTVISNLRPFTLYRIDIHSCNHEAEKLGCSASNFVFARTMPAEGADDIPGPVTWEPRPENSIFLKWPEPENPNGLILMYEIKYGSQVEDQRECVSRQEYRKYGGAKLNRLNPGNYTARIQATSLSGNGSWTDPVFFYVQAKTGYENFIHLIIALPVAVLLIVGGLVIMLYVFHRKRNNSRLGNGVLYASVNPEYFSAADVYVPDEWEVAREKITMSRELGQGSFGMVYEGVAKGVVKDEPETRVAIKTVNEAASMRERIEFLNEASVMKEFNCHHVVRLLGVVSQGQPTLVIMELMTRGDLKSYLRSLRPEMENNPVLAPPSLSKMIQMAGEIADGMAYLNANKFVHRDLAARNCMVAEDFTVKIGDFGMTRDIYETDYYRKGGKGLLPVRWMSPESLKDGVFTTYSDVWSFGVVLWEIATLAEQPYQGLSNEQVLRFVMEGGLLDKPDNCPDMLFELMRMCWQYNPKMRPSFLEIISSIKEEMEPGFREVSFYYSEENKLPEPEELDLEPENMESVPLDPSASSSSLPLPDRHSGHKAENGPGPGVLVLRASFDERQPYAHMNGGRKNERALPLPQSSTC
Method: 200 ul of each of these was mixed rapidly with 1.8 ml of refold buffer. Refold buffer was 1.4 M urea, 100 mM glycine, 0.5 M NaCl, 19% ethanol, 0.5 mM GSSG, 4 mM GSH, pH 9.5.

Binder | IC50 (inhibition of dihydrofolate reductase activity) [1] | Kd [2]
B1 | 99 nEq/L | 
B2 |  | ~40 nM
B3 |  | ~2 nM
B4 |  | ~100 nM
